T1: full-length beta-Catenin (Uniprot ID P35222) (Homo sapiens (Human), UniProt P35222 2-781)
T1 construct: full-length beta-Catenin (Uniprot ID P35222); also called bCat; B-Catenin
T1 sequence: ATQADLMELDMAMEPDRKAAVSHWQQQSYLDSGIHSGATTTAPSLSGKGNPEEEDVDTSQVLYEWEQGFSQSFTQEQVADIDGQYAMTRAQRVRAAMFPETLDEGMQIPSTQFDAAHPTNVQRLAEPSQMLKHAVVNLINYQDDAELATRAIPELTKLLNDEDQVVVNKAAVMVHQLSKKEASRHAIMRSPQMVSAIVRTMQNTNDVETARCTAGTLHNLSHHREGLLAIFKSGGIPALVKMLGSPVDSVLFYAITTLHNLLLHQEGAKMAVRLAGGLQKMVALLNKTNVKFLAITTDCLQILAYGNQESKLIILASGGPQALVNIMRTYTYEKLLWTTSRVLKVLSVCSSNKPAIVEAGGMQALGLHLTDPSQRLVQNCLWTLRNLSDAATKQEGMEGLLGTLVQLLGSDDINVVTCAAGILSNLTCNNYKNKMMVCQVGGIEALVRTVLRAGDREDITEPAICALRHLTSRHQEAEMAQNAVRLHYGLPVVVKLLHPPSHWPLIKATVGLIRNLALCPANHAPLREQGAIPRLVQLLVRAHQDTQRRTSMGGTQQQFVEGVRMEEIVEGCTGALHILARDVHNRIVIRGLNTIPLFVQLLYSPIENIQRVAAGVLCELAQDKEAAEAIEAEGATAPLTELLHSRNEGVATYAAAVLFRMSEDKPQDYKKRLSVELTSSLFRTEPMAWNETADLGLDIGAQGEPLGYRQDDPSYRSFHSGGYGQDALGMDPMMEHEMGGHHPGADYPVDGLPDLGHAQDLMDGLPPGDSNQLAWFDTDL

T2: B-cat-Halo (beta-catenin HaloTag fusion expressed in HEK293 cells) (Homo sapiens (Human), UniProt P35222 1-781)
T2 sequence: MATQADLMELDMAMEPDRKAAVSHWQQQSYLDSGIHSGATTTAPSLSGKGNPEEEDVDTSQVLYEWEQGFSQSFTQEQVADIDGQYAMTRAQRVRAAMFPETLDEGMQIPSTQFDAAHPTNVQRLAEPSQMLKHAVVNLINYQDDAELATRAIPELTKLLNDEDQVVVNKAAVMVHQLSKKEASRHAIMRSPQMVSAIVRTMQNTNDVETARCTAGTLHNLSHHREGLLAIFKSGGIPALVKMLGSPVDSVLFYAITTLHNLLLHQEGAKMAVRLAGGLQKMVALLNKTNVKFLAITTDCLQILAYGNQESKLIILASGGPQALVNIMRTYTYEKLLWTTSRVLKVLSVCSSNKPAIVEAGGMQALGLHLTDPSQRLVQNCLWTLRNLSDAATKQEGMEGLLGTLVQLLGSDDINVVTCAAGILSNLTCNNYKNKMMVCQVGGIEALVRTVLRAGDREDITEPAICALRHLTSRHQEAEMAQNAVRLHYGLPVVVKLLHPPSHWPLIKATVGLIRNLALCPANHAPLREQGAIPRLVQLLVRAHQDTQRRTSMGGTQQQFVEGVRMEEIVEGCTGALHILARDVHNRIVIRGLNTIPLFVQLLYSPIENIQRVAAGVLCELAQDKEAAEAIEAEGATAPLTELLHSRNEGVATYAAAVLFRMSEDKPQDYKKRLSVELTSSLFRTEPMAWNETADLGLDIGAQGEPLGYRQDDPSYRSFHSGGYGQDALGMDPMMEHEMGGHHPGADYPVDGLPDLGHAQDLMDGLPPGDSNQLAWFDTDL

B1: I-1381 (peptide)
peptide: Ac-[αAllylPro]DA[B5(4)]NT[Lys(iPr)]AFL[PyrS2″]F[2Nal]Q-NH2
modifications: staple 1-4, 4-11
notes: also called Ac-PL3-Asp-Ala-B5-Asn-Thr-iPrLys-Ala-Phe-Leu-PyrS2-Phe-2NapA-Gln-NH2
B2: I-1387 (peptide)
peptide: Ac-[αAllylPro]NA[B5(21)]DTK(iPr)AFL[PyrS2″]F[2Nal]Q-NH2
modifications: staple 1-4, 4-11
notes: also called Ac-PL3-Asn-Ala-B5-Asp-Thr-iPrLys-Ala-Phe-Leu-PyrS2-Phe-2NapA-Gln-NH2
B3: I-1376 (peptide)
peptide: Ac-[αAllylPro]DA[B5(4)]NT[Lys(iPr)]AFL[PyrS2″]F[Bta]Q-NH2
modifications: staple 1-4, 4-11
notes: also called Ac-PL3-Asp-Ala-B5-Asn-Thr-iPrLys-Ala-Phe-Leu-PyrS2-Phe-BztA-Gln-NH2
B4: I-1380 (peptide)
peptide: Ac-[αAllylPro]DA[B5(4)]NK[Lys(iPr)]AFL[PyrS2″]F[Bta]Q-NH2
modifications: staple 1-4, 4-11
notes: also called Ac-PL3-Asp-Ala-B5-Asn-Lys-iPrLys-Ala-Phe-Leu-PyrS2-Phe-BztA-Gln-NH2
B5: I-1378 (peptide)
peptide: Ac-[αAllylPro]DA[B5(4)]NT[Lys(iPr)]AFL[PyrS2″]F[Bta]T-NH2
modifications: staple 1-4, 4-11
notes: also called Ac-PL3-Asp-Ala-B5-Asn-Thr-iPrLys-Ala-Phe-Leu-PyrS2-Phe-BztA-Thr-NH2
B6: I-1379 (peptide)
peptide: Ac-[αAllylPro]DA[B5(4)]NQ[Lys(iPr)]AFL[PyrS2″]F[Bta]Q-NH2
modifications: staple 1-4, 4-11
notes: also called Ac-PL3-Asp-Ala-B5-Asn-Gln-iPrLys-Ala-Phe-Leu-PyrS2-Phe-BztA-Gln-NH2
B7: I-1377 (peptide)
peptide: Ac-[αAllylPro]DA[B5(4)]NT[Lys(iPr)]AFL[PyrS2″]F[Bta]K-NH2
modifications: staple 1-4, 4-11
notes: also called Ac-PL3-Asp-Ala-B5-Asn-Thr-iPrLys-Ala-Phe-Leu-PyrS2-Phe-BztA-Lys-NH2
B8: I-1382 (peptide)
peptide: Ac-[αAllylPro]NA[B5(4)]DT[Lys(iPr)]AFL[PyrS2″]F[Bta]Q-NH2
modifications: staple 1-4, 4-11
notes: also called Ac-PL3-Asn-Ala-B5-Asp-Thr-iPrLys-Ala-Phe-Leu-PyrS2-Phe-BztA-Gln-NH2
B9: I-1383 (peptide)
peptide: Ac-[αAllylPro]NA[B5(4)]DT[Lys(iPr)]AFL[PyrS2″]F[Bta]K-NH2
modifications: staple 1-4, 4-11
notes: also called Ac-PL3-Asn-Ala-B5-Asp-Thr-iPrLys-Ala-Phe-Leu-PyrS2-Phe-BztA-Lys-NH2
B10: I-1385 (peptide)
peptide: Ac-[αAllylPro]NA[B5(21)]DQK(iPr)AFL[PyrS2″]F[Bta]Q-NH2
modifications: staple 1-4, 4-11
notes: also called Ac-PL3-Asn-Ala-B5-Asp-Gln-iPrLys-Ala-Phe-Leu-PyrS2-Phe-BztA-Gln-NH2
B11: I-1386 (peptide)
peptide: Ac-[αAllylPro]NA[B5(21)]DKK(iPr)AFL[PyrS2″]F[Bta]Q-NH2
modifications: staple 1-4, 4-11
notes: also called Ac-PL3-Asn-Ala-B5-Asp-Lys-iPrLys-Ala-Phe-Leu-PyrS2-Phe-BztA-Gln-NH2
B12: I-1384 (peptide)
peptide: Ac-[αAllylPro]NA[B5(4)]DT[Lys(iPr)]AFL[PyrS2″]F[Bta]T-NH2
modifications: staple 1-4, 4-11
notes: also called Ac-PL3-Asn-Ala-B5-Asp-Thr-iPrLys-Ala-Phe-Leu-PyrS2-Phe-BztA-Thr-NH2
B13: I-2458 (peptide)
peptide: Ac-[αAllylPro]D[tBuAla][B5(4)]D[Phe(3-COOH)]AAFL[PyrS2″][Phe(2-CF3)][RbMeBztA]Q-NH2
modifications: staple 1-4, 4-11
B14: I-2448 (peptide)
peptide: Ac-[αAllylPro]N[Cha][B5(4)]DT[Lys(iPr)]AFL[PyrS2″]F[Bta]Q-NH2
modifications: staple 1-4, 4-11

Starred links: 1 amine or outer side, 2 acyl side, 3 side chain; linkers in the order of their positions; H or OH if unused. Positions of bridges follow the written chain, without caps; N, C: chain ends. Non-standard residues stand in square brackets, D forms with d. Primed or numbered codes have the meaning given here. *: point of attachment. PyrS2″ = (S)-3-amino-1-((pent-4-en-1-yloxy)carbonyl)pyrrolidine-3-carboxylic acid (stapling residue), C=CCCCOC(=O)N1CC[C@@](N[*:1])(C(=O)[*:2])C1; B5(4) = 2,2-bis(4-pentenyl)glycine = 2-amino-2-(pent-4-en-1-yl)hept-6-enoic acid (stitching residue), C=CCCCC(CCCC=C)(N[*:1])C(=O)[*:2]; B5(21) = 2-amino-2-(pent-4-en-1-yl)hept-6-enoic acid, bis(4-pentenyl)glycine (stitching residue), C=CCCCC(CCCC=C)(N[*:1])C(=O)[*:2]; Phe(3-COOH) = N[C@@H](Cc1cccc(C(=O)O)c1)C(=O)O; Phe(2-CF3) = N[C@@H](Cc1ccccc1C(F)(F)F)C(=O)O; 2Nal = N[C@@H](Cc1ccc2ccccc2c1)C(=O)O; Bta = N[C@@H](Cc1csc2ccccc12)C(=O)O; Lys(iPr) = CC(C)NCCCC[C@H](N)C(=O)O; αAllylPro = C=CC[C@@]1(C(=O)O)CCCN1; tBuAla = CC(C)(C)C[C@H](N)C(=O)O; Cha = N[C@@H](CC1CCCCC1)C(=O)O; iPr = CC(C)*

The first test deals with T1, full-length beta-Catenin (Uniprot ID …). The experiment in a line: fluorescence polarization competition; full-length beta-catenin + 5FAM-TCF4 10-53 probe, peptide titrated. On the procedure:
The plate was incubated protected from light for 60 minutes at 20° C. prior to read. Reads were performed on a CLARIOstar plate reader (BMG Labtech) in duplicate, and data were fitted to a 1:1 binding model with hill slope using an in-house script. All provided concentrations are final concentrations.
(In general: Polarisation of emitted light reports the rotation of a fluorescent probe.)
The term IC50 denotes the concentration at which inhibition is half-maximal. In the case of B1, the half-maximal inhibitory concentration (IC50) turned out to be 10 µM.
For B2, the half-maximal inhibitory concentration (IC50) came to 6.94 µM.
Same read-out and setting: then B3, with 4.21 µM; and B4, with 10 µM; and B5, with 6.17 µM.
Same read-out and setting: then B6, with 1.44 µM.
As for B7, the IC50 was determined as 1 µM.
Still for that read-out and setting: then B8, with 2.85 µM; and B9, with 1.66 µM; and B10, with 1.08 µM.
B11: the IC50 was 2.25 µM.
The same measure, in the same setting: as for B12, the figure is 10 µM.

The target of a further test is T2, B-cat-Halo (beta-catenin HaloTag fusion …). The experiment in a line: cell-based or functional assay.
With B13, the “NanoBRET Abs IC50” value was found to be 5.9 µM.
Still for that read-out and setting: as for B14, the figure is over 20 µM.

The record behind these values is patent publication US20240116985A1 (published 2024).
